Reference: US20220332804A1 (CSL INNOVATION, published 2022)
Changes are numbered by the printed parent chain.

Experiments:
Experiment in all cases: SPR, KD relative to WT C2;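 also: biacore SPR at 37 °C, anti-C2 mAbs captured via immobilised goat anti-human IgG, C2 alanine or serine surface mutants as analytes, 1:1 model fitted, double-referenced sensograms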
human C2 G432A = target: T1, human C2 G432A (human, UniProt P06681 21-752)
T1 sequence: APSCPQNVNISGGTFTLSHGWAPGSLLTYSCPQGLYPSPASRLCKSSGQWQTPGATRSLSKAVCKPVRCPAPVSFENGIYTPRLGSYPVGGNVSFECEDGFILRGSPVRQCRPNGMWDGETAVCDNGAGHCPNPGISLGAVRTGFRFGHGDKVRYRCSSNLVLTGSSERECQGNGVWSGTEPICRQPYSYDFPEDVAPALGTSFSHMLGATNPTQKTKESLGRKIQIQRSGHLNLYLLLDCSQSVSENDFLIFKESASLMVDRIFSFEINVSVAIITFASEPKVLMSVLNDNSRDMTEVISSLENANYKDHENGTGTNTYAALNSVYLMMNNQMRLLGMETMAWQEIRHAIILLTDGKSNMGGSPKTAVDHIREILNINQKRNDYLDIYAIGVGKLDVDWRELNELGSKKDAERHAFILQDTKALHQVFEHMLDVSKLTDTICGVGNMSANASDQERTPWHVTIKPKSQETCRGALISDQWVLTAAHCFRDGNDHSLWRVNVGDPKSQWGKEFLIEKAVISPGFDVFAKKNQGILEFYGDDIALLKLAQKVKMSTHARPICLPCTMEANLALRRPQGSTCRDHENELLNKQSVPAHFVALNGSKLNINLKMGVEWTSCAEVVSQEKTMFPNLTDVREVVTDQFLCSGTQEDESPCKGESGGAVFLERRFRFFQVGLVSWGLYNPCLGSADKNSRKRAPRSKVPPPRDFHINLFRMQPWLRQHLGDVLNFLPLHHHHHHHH

human C2 K531A = target: T2, human C2 K531A (human, UniProt P06681 21-752)
T2 sequence: T1 sequence with A412G, K511A

human C2 R519A = target: T3, human C2 R519A (human, UniProt P06681 21-752)
T3 sequence: T1 sequence with A412G, R499A

human C2 T317A = target: T4, human C2 T317A (human, UniProt P06681 21-752)
T4 sequence: T1 sequence with T297A, A412G

Measured: Fold diff

B1: RF16-226 (antibody, human IgG4 S228P, lambda)
heavy: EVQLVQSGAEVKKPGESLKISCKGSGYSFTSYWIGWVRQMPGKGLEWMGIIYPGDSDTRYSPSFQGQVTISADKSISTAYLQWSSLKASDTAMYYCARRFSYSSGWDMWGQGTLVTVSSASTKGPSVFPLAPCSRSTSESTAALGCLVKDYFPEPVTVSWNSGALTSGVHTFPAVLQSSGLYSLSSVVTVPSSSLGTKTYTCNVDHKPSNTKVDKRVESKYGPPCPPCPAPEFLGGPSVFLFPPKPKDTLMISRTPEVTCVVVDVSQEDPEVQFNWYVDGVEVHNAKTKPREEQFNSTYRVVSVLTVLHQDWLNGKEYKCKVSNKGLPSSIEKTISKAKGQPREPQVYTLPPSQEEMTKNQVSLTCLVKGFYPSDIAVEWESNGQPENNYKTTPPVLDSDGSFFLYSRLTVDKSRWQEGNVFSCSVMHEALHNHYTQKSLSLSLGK
light: SYELTQPPSVSVSPGQTARITCSGDALTSKYVAWYQQKSGLAPLLVIYEDTRRPSGIPAKFSGSSSGSVATLTISGAHGDDEADYYCYSTDASGHQRVFGGGTKLTVLSQPKAAPSVTLFPPSSEELQANKATLVCLISDFYPGAVTVAWKADGSPVKAGVETTKPSKQSNNKYAASSYLSLTPEQWKSHRSYSCQVTHEGSTVEKTVAPTECS
notes: pH-dependent anti-C2 antibody from a phage display library; also called WT
1 fold: human C2 G432A | human C2 K531A | human C2 R519A | human C2 T317A
